From the supplement of paper PMC10126150
± gives the standard deviation of the averaged measurements.

System: ATP
Assay: switch fluorescence ratio, 500 uM ATP over buffer (Cy3 cluster intensity, sum of 5 cycles each) (fold (ratio)); higher = stronger signal-on switching upon ATP binding; sequences stand for … in TCGTCGGCAGCGTCAGATGTGTATAAGAGACAGTTTTTTTTTTTTTTTTTTTTTTTTT…TC
Settings: aptamer strand: ATP DNA aptamer (quencher-CACCTGGGGGAGTATTGCGGAGGAAGG + anchor), 100 nM annealed; ATP concentration: 500 uM
In short: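 Cy3-labelled switching-strand clusters on a modified Illumina MiSeq flow-cell were annealed to 100 nM quencher-labelled ATP aptamer, imaged in selection buffer, then imaged after 15 min with 500 uM ATP at 22 °C. Five buffer/ATP cycles ran, with NaOH stripping and re-annealing between them. The fluorescence ratio is summed target-cycle over summed buffer-cycle Cy3 intensity per cluster, averaged per switch-domain sequence. Clusters outside 100-1000 RFU were excluded.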
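Also: ATP exposure 15 min at 22 °C before imaging.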

GATTGGCGAG
switch fluorescence ratio: 0.998 ± 0.011

GATTGGGCTT
switch fluorescence ratio: 0.998 ± 0.0097

GATTGGTGGC
switch fluorescence ratio: 1.04 ± 0.049

GATTGTACGA
switch fluorescence ratio: 1.01 ± 0.031

GATTGTACTA
switch fluorescence ratio: 0.998 ± 0.019

GATTGTAGTG
switch fluorescence ratio: 0.993 ± 0.032

GATTGTGCGG
switch fluorescence ratio: 0.981 ± 0.025

GATTGTGCTG
switch fluorescence ratio: 0.988 ± 0.01

GATTGTGGAC
switch fluorescence ratio: 1.1 ± 0.063

GATTTAGAGC
switch fluorescence ratio: 0.973 ± 0.037

GATTTAGCTA
switch fluorescence ratio: 1.014 ± 0.0034

GATTTAGGAC
switch fluorescence ratio: 0.967 ± 0.044

GATTTAGGGA
switch fluorescence ratio: 0.995 ± 0.039

GATTTATGAC
switch fluorescence ratio: 1.02 ± 0.038

GATTTCAAAC
switch fluorescence ratio: 0.9817 ± 0.0045

GATTTCATAG
switch fluorescence ratio: 1.02 ± 0.063

GATTTGAAAC
switch fluorescence ratio: 1 ± 0.031

GATTTGAGGG
switch fluorescence ratio: 0.973 ± 0.032

GATTTGCCGA
switch fluorescence ratio: 1.034 ± 0.005

GATTTGGAAG
switch fluorescence ratio: 1.01 ± 0.024

GATTTGGAGA
switch fluorescence ratio: 1 ± 0.017

GATTTGGCGA
switch fluorescence ratio: 0.992 ± 0.011

GATTTGGCTC
switch fluorescence ratio: 1 ± 0.031

GATTTGGTTG
switch fluorescence ratio: 0.963 ± 0.026

GATTTGTGTG
switch fluorescence ratio: 0.978 ± 0.034

GATTTTAATG
switch fluorescence ratio: 0.981 ± 0.013

GATTTTAGTT
switch fluorescence ratio: 0.9848 ± 0.0086

GATTTTATGT
switch fluorescence ratio: 1.05 ± 0.086

GATTTTCGAA
switch fluorescence ratio: 1 ± 0.041

GATTTTCGAG
switch fluorescence ratio: 0.994 ± 0.031

GATTTTGGAC
switch fluorescence ratio: 1.031 ± 0.0078

GATTTTGGTG
switch fluorescence ratio: 0.971 ± 0.023

GATTTTGTTA
switch fluorescence ratio: 1.01 ± 0.025

GATTTTGTTG
switch fluorescence ratio: 0.979 ± 0.014

GATTTTTAAA
switch fluorescence ratio: 1.02 ± 0.035

GATTTTTCAG
switch fluorescence ratio: 1.019 ± 0.006

GATTTTTTGC
switch fluorescence ratio: 0.98176 ± 0.00098

GATTTTTTTG
switch fluorescence ratio: 0.985 ± 0.037

GATTTTTTTT
switch fluorescence ratio: 0.989 ± 0.029

GCAAAATTTC
switch fluorescence ratio: 1.02 ± 0.085

GCAAAGCGTC
switch fluorescence ratio: 0.9824 ± 0.0083

GCAAATGGTT
switch fluorescence ratio: 1.01 ± 0.053

GCAAATTCCG
switch fluorescence ratio: 1.026 ± 0.0095

GCAACGGGTC
switch fluorescence ratio: 1.03 ± 0.025

GCAACGGGTT
switch fluorescence ratio: 1.16 ± 0.21

GCAACTATT
switch fluorescence ratio: 2.42 ± 2

GCAAGAACGC
switch fluorescence ratio: 1.096 ± 0.0023

GCAAGGGTAT
switch fluorescence ratio: 1.01 ± 0.025

GCAAGGGTGG
switch fluorescence ratio: 1 ± 0.038

GCAAGGTAGC
switch fluorescence ratio: 1.07 ± 0.011

GCAAGTAGGG
switch fluorescence ratio: 1.02 ± 0.019

GCAAGTGTTC
switch fluorescence ratio: 1.01 ± 0.018

GCAATATGCA
switch fluorescence ratio: 1.03 ± 0.05

GCAATATTTC
switch fluorescence ratio: 2.31 ± 0.35

GCAATCGGGA
switch fluorescence ratio: 1.2 ± 0.087

GCAATTTGGT
switch fluorescence ratio: 1.03 ± 0.02

GCAATTTTTG
switch fluorescence ratio: 1.002 ± 0.0066

GCACACAAAA
switch fluorescence ratio: 1.05 ± 0.012

GCACATTGCT
switch fluorescence ratio: 1.02 ± 0.013

GCACCAATT
switch fluorescence ratio: 1.06 ± 0.072

GCACCATAGC
switch fluorescence ratio: 1.06 ± 0.011

GCACCTCAAT
switch fluorescence ratio: 1.25 ± 0.037

GCACGATGGT
switch fluorescence ratio: 0.972 ± 0.01

GCACGGGCAC
switch fluorescence ratio: 1.18 ± 0.18

GCACTAGGGA
switch fluorescence ratio: 0.9908 ± 0.0062

GCACTTTTCG
switch fluorescence ratio: 1.01 ± 0.025

GCAGAATATT
switch fluorescence ratio: 0.998 ± 0.029

GCAGACGGTG
switch fluorescence ratio: 1.05 ± 0.013

GCAGATGATC
switch fluorescence ratio: 1.027 ± 0.0014

GCAGATGCCT
switch fluorescence ratio: 1 ± 0.023

GCAGATTGGC
switch fluorescence ratio: 1.034 ± 0.01

GCAGATTTGG
switch fluorescence ratio: 0.978 ± 0.026

GCAGCGGACT
switch fluorescence ratio: 1.29 ± 0.042

GCAGCGGCTG
switch fluorescence ratio: 0.994 ± 0.014

GCAGCGGGGC
switch fluorescence ratio: 1.28 ± 0.038

GCAGCTGGCA
switch fluorescence ratio: 0.984 ± 0.017

GCAGGAAAAC
switch fluorescence ratio: 1.04 ± 0.018

GCAGGAAGAG
switch fluorescence ratio: 1.0184 ± 0.00041

GCAGGAAGGC
switch fluorescence ratio: 1.089 ± 0.0071

GCAGGACATA
switch fluorescence ratio: 1.06 ± 0.027

GCAGGACGGA
switch fluorescence ratio: 1.03 ± 0.04

GCAGGAGCAT
switch fluorescence ratio: 1.03 ± 0.052

GCAGGCACGG
switch fluorescence ratio: 0.976 ± 0.028

GCAGGGAGAG
switch fluorescence ratio: 0.964 ± 0.022

GCAGGGCGGG
switch fluorescence ratio: 0.99 ± 0.011

GCAGGGGAGG
switch fluorescence ratio: 1 ± 0.036

GCAGGGGGTA
switch fluorescence ratio: 0.999 ± 0.027

GCAGGGGTTC
switch fluorescence ratio: 1.16 ± 0.15

GCAGGTGTTC
switch fluorescence ratio: 1.14 ± 0.02

GCAGTACGGG
switch fluorescence ratio: 1.42 ± 0.26

GCAGTGGGTG
switch fluorescence ratio: 0.998 ± 0.012

GCAGTGTCCA
switch fluorescence ratio: 1.01 ± 0.032

GCAGTGTGCG
switch fluorescence ratio: 0.985 ± 0.025

GCAGTTGAGT
switch fluorescence ratio: 1.01 ± 0.017

GCAGTTTGTT
switch fluorescence ratio: 0.978 ± 0.019

GCATAACAGG
switch fluorescence ratio: 1.04 ± 0.045

GCATAAGATG
switch fluorescence ratio: 1 ± 0.024

GCATAGCAAT
switch fluorescence ratio: 1.054 ± 0.003

GCATATGGTT
switch fluorescence ratio: 0.988 ± 0.016

GCATATTTGA
switch fluorescence ratio: 0.981 ± 0.015

GCATCATATG
switch fluorescence ratio: 0.998 ± 0.028

GCATCATGTT
switch fluorescence ratio: 0.987 ± 0.044

GCATCCGAAG
switch fluorescence ratio: 1.274 ± 0.0035

GCATCGCCAT
switch fluorescence ratio: 1.02 ± 0.029

GCATCGTCGG
switch fluorescence ratio: 1.04 ± 0.058

GCATCGTGCG
switch fluorescence ratio: 1.01 ± 0.052

GCATCTAAGC
switch fluorescence ratio: 1.06 ± 0.043

GCATCTCGCG
switch fluorescence ratio: 1.01 ± 0.021

GCATGAAAAC
switch fluorescence ratio: 1.03 ± 0.031

GCATGAGTGC
switch fluorescence ratio: 1.07 ± 0.061

GCATGATAAC
switch fluorescence ratio: 1.04 ± 0.02

GCATGATAAT
switch fluorescence ratio: 1.004 ± 0.0013

GCATGATATG
switch fluorescence ratio: 1.01 ± 0.0088

GCATGCAGGA
switch fluorescence ratio: 1.01 ± 0.02

GCATGCATTG
switch fluorescence ratio: 0.97797 ± 0.0001

GCATGCGCGC
switch fluorescence ratio: 0.984 ± 0.012

GCATGCTGGG
switch fluorescence ratio: 1.04 ± 0.0064

GCATGCTGTC
switch fluorescence ratio: 0.983 ± 0.019

GCATGGCTGC
switch fluorescence ratio: 1.03 ± 0.036

GCATGGCTTT
switch fluorescence ratio: 1.01 ± 0.023

GCATGGGGAT
switch fluorescence ratio: 1.02 ± 0.051

GCATGGGTAG
switch fluorescence ratio: 0.982 ± 0.018

GCATGTCGGA
switch fluorescence ratio: 1.01 ± 0.039

GCATGTGGGC
switch fluorescence ratio: 0.967 ± 0.01

GCATGTGTGG
switch fluorescence ratio: 0.995 ± 0.065

GCATTAAGAT
switch fluorescence ratio: 1.02 ± 0.025

GCATTAAGTG
switch fluorescence ratio: 1 ± 0.024

GCATTAATGG
switch fluorescence ratio: 1.04 ± 0.051

GCATTAGGAC
switch fluorescence ratio: 1.24 ± 0.018

GCATTAGGTT
switch fluorescence ratio: 1.03 ± 0.019

GCATTATAT
switch fluorescence ratio: 1.03 ± 0.023

GCATTATTAA
switch fluorescence ratio: 1.01 ± 0.032

GCATTCGGAT
switch fluorescence ratio: 1.01 ± 0.014

GCATTGAAGC
switch fluorescence ratio: 0.995 ± 0.011

GCATTGGTTT
switch fluorescence ratio: 0.982 ± 0.011

GCATTGTTTT
switch fluorescence ratio: 0.96 ± 0.038

GCATTTCAGG
switch fluorescence ratio: 0.98822 ± 0.00033

GCATTTGGCT
switch fluorescence ratio: 1.027 ± 0.0064

GCCAAAGGTG
switch fluorescence ratio: 1.72 ± 0.12

GCCAACGGGG
switch fluorescence ratio: 1 ± 0.028

GCCAATTTGC
switch fluorescence ratio: 1.02 ± 0.07

GCCAGATAGG
switch fluorescence ratio: 0.9562 ± 0.0088

GCCAGGGACG
switch fluorescence ratio: 1.02 ± 0.028

GCCAGTATCC
switch fluorescence ratio: 0.997 ± 0.014

GCCAGTTTGC
switch fluorescence ratio: 0.998 ± 0.015

GCCAGTTTGG
switch fluorescence ratio: 0.9916 ± 0.0052

GCCATCAAGA
switch fluorescence ratio: 0.995 ± 0.062

GCCATCGAAT
switch fluorescence ratio: 1 ± 0.021

GCCATGTTGA
switch fluorescence ratio: 1.02 ± 0.0063

GCCATTAGCA
switch fluorescence ratio: 1.022 ± 0.005

GCCATTGAGG
switch fluorescence ratio: 0.9668 ± 0.0031

GCCCATTTCT
switch fluorescence ratio: 1.03 ± 0.039

GCCCATTTTT
switch fluorescence ratio: 0.978 ± 0.011

GCCCCGGGGG
switch fluorescence ratio: 1.1 ± 0.046

GCCCGATCAC
switch fluorescence ratio: 1.151 ± 0.0086

GCCCGCCACA
switch fluorescence ratio: 1.06 ± 0.041

GCCCGGGGGG
switch fluorescence ratio: 1.03 ± 0.0083
